Measured values published in paper PMC7809101, “Fetal bovine serum albumin inhibits antimicrobial peptide activity and binds drug only in complex with α1-antitrypsin” (Scientific Reports, 2021).

How the values were obtained:
[1] = molecular target: T1, protein B (α1-antitrypsin) (Bos taurus, UniProt P34955); test: Band shift of AMPs by protein B; type: binding, bovine; set-up: The homogeneities of collected protein A (albumin), protein B (α1-antitrypsin), protein C (serotransferrin) and protein D complex; from tissue; host or cells: fetal bovine serum (70% ammonium sulfate fraction, FPLC Mono Q); conditions: AMP 4 μg; protein 10 μg (Suppl. Fig. 3a); PC buffer, room temperature, 30 min; 8% horizontal native PAGE
T1 sequence (P34955 25-416): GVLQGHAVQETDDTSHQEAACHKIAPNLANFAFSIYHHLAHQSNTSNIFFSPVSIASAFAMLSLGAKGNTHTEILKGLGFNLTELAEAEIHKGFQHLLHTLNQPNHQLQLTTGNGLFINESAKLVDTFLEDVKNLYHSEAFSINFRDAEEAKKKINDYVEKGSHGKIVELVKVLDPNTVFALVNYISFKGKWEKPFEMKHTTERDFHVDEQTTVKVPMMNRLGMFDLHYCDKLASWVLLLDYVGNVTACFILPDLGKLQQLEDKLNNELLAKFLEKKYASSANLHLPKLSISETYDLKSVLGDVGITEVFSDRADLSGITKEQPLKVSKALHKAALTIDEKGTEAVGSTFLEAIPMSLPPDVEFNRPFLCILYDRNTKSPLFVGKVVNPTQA
Method: (§1) Various AMPs (4 μg each) were incubated with fetal bovine serum (FBS) components at room temperature in 10 μl PC buffer for 30 min and subjected to horizontal native 8% PAGE, pH8.0 or pH8.8, and Coomassie Blue staining.

Apo-AI = conditions: cited from earlier work
Text: In addition to protein D, the serum protein apolipoprotein AI (Apo-AI) was also pulled down from crude fetal bovine serum by immobilized TP4-A12I,A15I, but in a less amount (Fig. 2a). The Apo-AI with Mr = 28,080 Da is the major constituent of high-density lipoprotein (HDL), which is involved in the removal of cholesterol from peripheral tissues and its catabolism. […] The amount of Apo-A1 in fetal bovine serum was much less than that of protein D (Fig. 8a, b). Int ...

fetal bovine serum (FBS) = test: Band shift of AMPs by fetal bovine serum; type: binding; conditions: 10–40% FBS; AMP 4 μg; PC buffer, room temperature, 30 min; horizontal native 8% PAGE
Method: as §1

[2] = molecular target: T2, protein D (albumin and α1-antitrypsin complex) (Bos taurus, UniProt P02769+P34955); test: Band shift of AMPs by protein D; type: binding, bovine; conditions: AMP 4 μg; protein 10 μg (Suppl. Fig. 3a); PC buffer, room temperature, 30 min; 8% horizontal native PAGE
T2 construct: The active components were further purified by fast performance liquid chromatography (FPLC) Mono Q and S12 column chromatography from the 70% saturated fraction; from tissue; host or cells: fetal bovine serum (70% ammonium sulfate fraction, FPLC Mono Q and Superose 12)
T2 sequence (P02769 25-607, one chain of several): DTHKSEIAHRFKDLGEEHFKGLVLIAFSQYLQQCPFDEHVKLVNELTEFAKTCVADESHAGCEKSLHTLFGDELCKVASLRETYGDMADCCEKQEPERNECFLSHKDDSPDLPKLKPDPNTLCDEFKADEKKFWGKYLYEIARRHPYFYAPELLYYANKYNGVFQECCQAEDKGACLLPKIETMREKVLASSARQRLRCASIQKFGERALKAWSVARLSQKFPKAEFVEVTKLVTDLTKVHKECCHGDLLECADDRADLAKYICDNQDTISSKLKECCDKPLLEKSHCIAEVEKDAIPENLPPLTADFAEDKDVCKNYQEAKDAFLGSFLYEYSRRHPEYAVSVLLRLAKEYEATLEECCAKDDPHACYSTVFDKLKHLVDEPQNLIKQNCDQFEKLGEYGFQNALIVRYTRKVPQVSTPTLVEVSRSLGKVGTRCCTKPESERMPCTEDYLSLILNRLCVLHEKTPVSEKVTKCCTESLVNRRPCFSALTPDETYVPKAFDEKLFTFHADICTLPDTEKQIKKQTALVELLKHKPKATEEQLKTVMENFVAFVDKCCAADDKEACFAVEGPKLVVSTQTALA

[3] = system: Escherichia coli K-12 (MG1655); test: Antimicrobial (bactericidal) activity against E. coli, effect of serum or serum proteins; type: cell-based; conditions: 5% (v/v) FBS in PBS, 37 °C; remaining viable cells (cfu)
Method: The Gram-negative bacteria Escherichia coli K-12 (MG1655) was cultured and plated in/on Luria–Bertani broth/agar plate (Merck Millipore, Darmstadt, Germany). The Gram-positive Staphylococcus aureus (ATCC 6538P) was cultured and plated in tryptic soy broth/agar (BD, MD, USA). The fungus Candida albicans (ATCC 14,053) was cultured and plated in YM broth/agar (BD, MD, USA). The bacteria were grown overnight, washed, and diluted 1:2000 in phosphate buffered saline (PBS), pH 7.5 or DMEM (Life Biotech, California, USA), pH 7.4. Bacteria (ca. 1 × 10^6 colony-forming units, cfu) were mixed with antimicrobial peptides (AMP) in 100 μl PBS and incubated at 37 °C (for bacteria) and at 30 °C (for fungus). Serial dilutions of each AMP-treated bacteria in PBS/DMEM supplemented with FBS were prepared and plated for the determination of remaining viable cells (expressed as cfu). At least three independent experiments were performed for each assay to determine the average value with standard deviation. MBC was defined as the lowest AMP concentration that kills 99.9% of the original inoculum.

Substance: LL37: human AMP LL37 [reference compound]
- binding to protein B (band shift) [1]: not by protein A and protein B
- effect of Apo-AI on antimicrobial and cytotoxic activities (Apo-AI): inhibits its antimicrobial and cytotoxic activities
- mobility of AMP in band shift assay with FBS (fetal bovine serum (FBS)): retarded
- binding to protein D (band shift) [2]: also bound by protein D
- effect of FBS on antimicrobial activity against E. coli [3]: serum-mediated repression
